Experiment [1] has as its target FcγRIIIa on NK cells of human PBMC (human, UniProt P08637 17-254). The experiment is described as follows: cell-based or functional assay.
Experiment [2] addresses T1, recombinant polyhistidine tagged mouse FcγRIV (R&D Systems) (mouse, UniProt A0A0B4J1G0 21-203).
T1 construct: Bought
T1 sequence: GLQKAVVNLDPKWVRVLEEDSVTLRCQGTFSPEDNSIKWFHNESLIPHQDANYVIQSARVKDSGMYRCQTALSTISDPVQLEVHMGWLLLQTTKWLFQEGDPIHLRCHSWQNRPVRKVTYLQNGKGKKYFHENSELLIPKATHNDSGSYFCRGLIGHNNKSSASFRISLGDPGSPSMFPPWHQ
Put plainly: ELISA, His-tagged mouse receptor captured on copper-coated plate. (In general: ELISA stands for enzyme-linked immunosorbent assay.)

Experiment [3] concerns the target T2, recombinant polyhistidine tagged mouse FcγRIII (R&D Systems) (mouse, UniProt P08508 31-215).
T2 construct: Bought
T2 sequence (looked up): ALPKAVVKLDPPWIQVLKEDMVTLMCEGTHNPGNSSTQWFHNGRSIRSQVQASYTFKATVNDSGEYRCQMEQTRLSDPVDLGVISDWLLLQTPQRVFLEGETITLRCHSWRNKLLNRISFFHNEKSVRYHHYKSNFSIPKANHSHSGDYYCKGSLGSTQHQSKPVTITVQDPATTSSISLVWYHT
Described as above.

Experiment [4] has as its target T3, recombinant human His-tagged FcγRIIa (R&D Systems #1330-CD-050) (human, UniProt P12318 36-218, limits assumed).
T3 construct: Bought; also called CD32a; recombinant, soluble, human FcγRIIa
T3 sequence (looked up): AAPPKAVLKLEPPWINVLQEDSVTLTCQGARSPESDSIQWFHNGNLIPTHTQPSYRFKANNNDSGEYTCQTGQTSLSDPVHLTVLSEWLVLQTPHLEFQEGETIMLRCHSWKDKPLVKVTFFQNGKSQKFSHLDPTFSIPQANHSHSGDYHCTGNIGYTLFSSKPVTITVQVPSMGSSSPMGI
Put plainly: AlphaScreen, His-tagged FcγRIIa on nickel acceptor beads. On the procedure:
FcγRIIa (CD32a) AlphaScreen—Nickel acceptor beads (Perkin Elmer #6760619C) were diluted 1:50 in assay buffer (PBS, pH 7.4, 4 mg/ml BSA, 0.01% Tween-20), and 27.5 μl were added to each well of a Nunc V-bottom polypropylene plate (VWR # 62409-108) (Powers G., Notebook 9006, pp. 169-175, 182-185). A 2.0 μg/ml solution of recombinant human His-tagged FcγRIIa (R&D Systems #1330-CD-050) was prepared in assay buffer and 27.5 μl added to each well of a separate Nunc V bottom polypropylene plate. Titrations of test Abs were prepared in the Nunc V bottom polypropylene plate starting at 30 μg/ml. A 2 μg/ml solution of biotinylated goat F(ab′)₂ anti-human IgG F(ab′)₂ (Jackson Immunoresearch #109-066-097) was prepared in assay buffer and 27.5 μl added to each well of another Nunc V bottom polypropylene plate. A 1:50 dilution of streptavidin donor beads (PerkinElmer # 6760002) was prepared in assay buffer and 27.5 μl added to each well of another Nunc V bottom polypropylene plate. A volume of 5 μl of each reagent was added to the corresponding quadrants of a low-volume, non-binding white 384-well plate (Corning # 3673) in the following order: acceptor beads, FcγRIIa, test Ab, biotinylated anti-human IgG F(ab′)₂, and streptavidin donor beads. The plates were incubated for 30 minutes with shaking and the O.D.s determined using an Envision plate reader.
A general note: Alpha assays give light when donor and acceptor beads are brought close together.

Experiment [5] concerns the target T4, recombinant human His-tagged FcγRI (extracellular domain, R&D Systems #1257-FC-050) (human, UniProt P12314 16-292).
T4 construct: extracellular domain; Bought; also called CD64; recombinant, soluble, human FcγRI
The experiment is described as follows: ELISA, His-tagged FcγRI captured on HisGrab plate. On the procedure: FcγRI (CD64) ELISA —50 μl of a 1 μg/ml solution of recombinant human His-tagged FcγRI (extracellular domain, R&D Systems #1257-FC-050) in ELISA buffer (PBS, pH 7.4, 4 mg/ml BSA, 0.01% Tween-20) was added to each well of HisGrab 96 well plates (Pierce #15142) (Powers G., Notebook 9006, pp. 166-168, 180-181). The plate was incubated with shaking for 3 hours. The plates were washed 3× with 300 μl of wash buffer (PBS, 0.01% Tween-20) on a plate washer. Serial dilutions of the CNTO860 antibody Fc-variant samples were made in ELISA buffer and 50 μl per well of each titration were added in duplicate to the FcγRI-coated plates. The plates were incubated with shaking for 1 hour. The plates were washed 3× with 300 μl of wash buffer on a plate washer. 50 μl of a 1:10,000 dilution of HRP-labeled goat F(ab′)₂ anti-human IgG F(ab′)₂ (Jackson Immunoresearch # 109-036-097) in ELISA buffer was added to each well. The plates were incubated with shaking for 30 minutes. The plates were washed 3× with 300 μl of wash buffer on the plate washer. 50 μl per well TMB substrate (RDI #RDI-TMBSU-1L) was added to each well and developed for 5 minutes. The reaction was stopped by adding 100 μl 0.2 N sulfuric acid. The plates were read at OD450 on an Envision plate reader.

FcγRIIIa on NK cells of human PBMC, sequence (P08637 17-254): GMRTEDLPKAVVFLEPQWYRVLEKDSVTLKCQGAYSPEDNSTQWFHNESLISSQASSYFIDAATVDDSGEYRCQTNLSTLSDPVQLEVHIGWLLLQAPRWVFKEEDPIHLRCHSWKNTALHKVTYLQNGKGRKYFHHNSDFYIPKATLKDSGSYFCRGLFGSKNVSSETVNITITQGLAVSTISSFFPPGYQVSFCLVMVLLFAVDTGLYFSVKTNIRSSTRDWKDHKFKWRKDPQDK
T4 sequence (P12314 16-292): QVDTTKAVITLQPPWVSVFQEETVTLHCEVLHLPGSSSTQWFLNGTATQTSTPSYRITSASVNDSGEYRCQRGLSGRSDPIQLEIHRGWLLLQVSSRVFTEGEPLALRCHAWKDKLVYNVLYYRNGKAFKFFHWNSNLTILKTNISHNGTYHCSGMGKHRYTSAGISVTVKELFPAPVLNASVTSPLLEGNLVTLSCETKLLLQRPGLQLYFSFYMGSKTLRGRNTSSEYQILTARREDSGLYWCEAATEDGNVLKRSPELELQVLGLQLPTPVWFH

B1: YB2/0-CNTO 860 A330Y (antibody, human IgG1, kappa)
heavy: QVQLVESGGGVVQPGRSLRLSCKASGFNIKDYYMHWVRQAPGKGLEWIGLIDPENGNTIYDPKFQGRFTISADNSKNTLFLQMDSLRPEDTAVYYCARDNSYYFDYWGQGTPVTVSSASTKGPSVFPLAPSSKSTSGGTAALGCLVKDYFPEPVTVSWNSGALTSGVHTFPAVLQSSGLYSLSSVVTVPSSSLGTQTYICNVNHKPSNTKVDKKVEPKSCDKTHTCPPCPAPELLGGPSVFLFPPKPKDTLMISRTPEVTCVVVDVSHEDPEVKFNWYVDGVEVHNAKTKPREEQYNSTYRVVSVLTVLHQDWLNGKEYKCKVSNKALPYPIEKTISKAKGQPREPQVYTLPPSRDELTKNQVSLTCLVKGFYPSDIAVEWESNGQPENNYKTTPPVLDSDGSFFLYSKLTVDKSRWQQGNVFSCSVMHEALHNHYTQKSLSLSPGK
light: DIQMTQSPSSLSASVGDRVTITCKASQDIRKYLNWYQQKPGKAPKLLIYYATSLADGVPSRFSGSGSGTDYTFTISSLQPEDIATYYCLQHGESPYTFGQGTKLEITRTVAAPSVFIFPPSDEQLKSGTASVVCLLNNFYPREAKVQWKVDNALQSGNSQESVTEQDSKDSTYSLSSTLTLSKADYEKHKVYACEVTHQGLSSPVTKSFNRGEC
modifications: N-linked glycan at heavy chain Asn297 (YB2/0-type, low fucose); not carried by the letters
notes: IgG1/kappa Fc variant; stably expressed in YB2/0 cells (p4176/p2402); EU numbering; also called A330Y (YB2/0 cell-derived); copies: 2 + 2
For B1, the “EC25 (ng/ml), ADCC of HCT116 cells by human PBMC” value (“EC25 (ng/ml), ADCC” below) in experiment [1] turned out to be 0.4 ng/mL. For the same molecule, the “ECOD1 (concentration required for an O.D. value of 1.0)” value (shortened to “ECOD1”) in experiment [2] is 30 ng/mL; in experiment [3], 6500 ng/mL. Further, in experiment [4], the “concentration (ng/ml) required for a set O.D. signal” value amounted to 78 ng/mL. The “concentration (ng/ml) required for an O.D. value of 1.0” value in experiment [5] was determined as 420 ng/mL.

B2: YB2/0-CNTO 860 I332E (antibody, human IgG1, kappa)
heavy: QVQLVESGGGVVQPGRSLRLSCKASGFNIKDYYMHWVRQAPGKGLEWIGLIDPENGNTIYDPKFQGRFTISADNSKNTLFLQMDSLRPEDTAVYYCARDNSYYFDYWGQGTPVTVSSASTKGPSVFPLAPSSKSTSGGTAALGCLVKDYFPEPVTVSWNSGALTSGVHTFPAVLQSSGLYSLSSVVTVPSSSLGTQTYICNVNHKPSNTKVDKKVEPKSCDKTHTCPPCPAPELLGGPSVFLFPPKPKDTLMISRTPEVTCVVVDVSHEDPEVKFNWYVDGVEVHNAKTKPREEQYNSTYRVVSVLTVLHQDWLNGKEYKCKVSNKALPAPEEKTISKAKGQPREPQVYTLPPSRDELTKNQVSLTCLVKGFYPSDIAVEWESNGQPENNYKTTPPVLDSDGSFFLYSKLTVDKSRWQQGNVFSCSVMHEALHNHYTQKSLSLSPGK
light: B1 light
modifications: Heavy chain N297 carries the YB2/0-type low-fucose N-linked glycan; not carried by the letters.
notes: IgG1/kappa Fc variant; stably expressed in YB2/0 cells (p4148/p2402), low-fucose glycan; EU numbering; also called I332E (YB2/0 cell-derived); I332E from YB2/0 cells; copies: 2 + 2
In the case of B2, in experiment [1], the “EC25 (ng/ml), ADCC” value was determined as 0.3 ng/mL. Besides, the “ECOD1” value in experiment [2] was found to be 7 ng/mL; in experiment [3], 600 ng/mL. In addition, the “concentration (ng/ml) required for a set O.D. signal” value in experiment [4] came to 60 ng/mL. For the same molecule, in experiment [5], the “concentration (ng/ml) required for an O.D. value of 1.0” value came to 300 ng/mL.

B3: YB2/0-CNTO 860 V264I/I332E (antibody, human IgG1, kappa)
heavy: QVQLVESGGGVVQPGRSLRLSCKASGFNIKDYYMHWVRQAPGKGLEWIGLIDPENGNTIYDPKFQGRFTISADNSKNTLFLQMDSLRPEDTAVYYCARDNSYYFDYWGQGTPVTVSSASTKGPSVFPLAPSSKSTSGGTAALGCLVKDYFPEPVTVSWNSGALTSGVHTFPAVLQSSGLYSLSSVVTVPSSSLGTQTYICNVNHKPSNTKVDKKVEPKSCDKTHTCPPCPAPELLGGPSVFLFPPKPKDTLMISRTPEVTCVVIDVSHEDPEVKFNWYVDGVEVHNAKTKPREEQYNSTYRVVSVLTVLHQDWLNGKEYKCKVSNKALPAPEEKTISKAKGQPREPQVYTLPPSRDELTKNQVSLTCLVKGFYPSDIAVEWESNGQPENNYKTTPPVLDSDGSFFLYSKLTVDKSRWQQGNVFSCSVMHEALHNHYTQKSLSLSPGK
light: B1 light
modifications: N-linked glycan at heavy chain Asn297 (YB2/0-type, low fucose); not carried by the letters
notes: IgG1/kappa Fc variant; stably expressed in YB2/0 cells (p4180/p2402); EU numbering; also called V264I/I332E (YB2/0 cell-derived); copies: 2 + 2
In the case of B3, the “EC25 (ng/ml), ADCC” value in experiment [1] was 0.12 ng/mL. For the same molecule, the “ECOD1” value in experiment [2] turned out to be 7 ng/mL; in experiment [3] it was 6000 ng/mL. Further, the “concentration (ng/ml) required for a set O.D. signal” value in experiment [4] amounted to 90 ng/mL. The “concentration (ng/ml) required for an O.D. value of 1.0” value in experiment [5] was 480 ng/mL.

B4: YB2/0-CNTO 860 S239D/I332E (antibody, human IgG1, kappa)
heavy: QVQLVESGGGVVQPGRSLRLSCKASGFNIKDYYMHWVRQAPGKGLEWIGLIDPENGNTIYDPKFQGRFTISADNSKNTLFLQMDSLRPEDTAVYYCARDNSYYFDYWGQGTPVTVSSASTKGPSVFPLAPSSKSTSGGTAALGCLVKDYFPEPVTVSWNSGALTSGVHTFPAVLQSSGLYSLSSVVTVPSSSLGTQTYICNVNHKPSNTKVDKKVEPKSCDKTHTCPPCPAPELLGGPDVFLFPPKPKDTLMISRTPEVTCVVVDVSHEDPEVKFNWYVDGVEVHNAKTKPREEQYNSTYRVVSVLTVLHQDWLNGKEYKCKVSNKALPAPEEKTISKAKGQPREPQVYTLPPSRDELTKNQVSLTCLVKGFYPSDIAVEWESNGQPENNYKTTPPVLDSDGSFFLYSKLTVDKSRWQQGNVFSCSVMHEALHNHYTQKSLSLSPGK
light: B1 light
modifications: N-linked glycan at heavy chain Asn297 (YB2/0-type, low fucose); not carried by the letters
notes: IgG1/kappa Fc variant; stably expressed in YB2/0 cells (p4179/p2402); EU numbering; also called S239D/I332E (YB2/0 cell-derived); copies: 2 + 2
Turning to B4, the “EC25 (ng/ml), ADCC” value in experiment [1] amounted to 0.2 ng/mL. The figures for the “ECOD1” value in experiment [2] and in experiment [3] were 7 ng/mL and 2800 ng/mL, respectively. The “concentration (ng/ml) required for a set O.D. signal” value in experiment [4] was 60 ng/mL. Also, the “concentration (ng/ml) required for an O.D. value of 1.0” value in experiment [5] was 300 ng/mL.

These data come from US20080311034A1 (published 2008).
